For 44 molecules, Kd results are on record in paper PMC9352680, “A comprehensive thermodynamic model for RNA binding by the Saccharomyces cerevisiae Pumilio protein PUF4”.

The chains are these.
T1: PUF4 RNA-binding domain (Saccharomyces cerevisiae, UniProt P25339 537-888)
T1 sequence: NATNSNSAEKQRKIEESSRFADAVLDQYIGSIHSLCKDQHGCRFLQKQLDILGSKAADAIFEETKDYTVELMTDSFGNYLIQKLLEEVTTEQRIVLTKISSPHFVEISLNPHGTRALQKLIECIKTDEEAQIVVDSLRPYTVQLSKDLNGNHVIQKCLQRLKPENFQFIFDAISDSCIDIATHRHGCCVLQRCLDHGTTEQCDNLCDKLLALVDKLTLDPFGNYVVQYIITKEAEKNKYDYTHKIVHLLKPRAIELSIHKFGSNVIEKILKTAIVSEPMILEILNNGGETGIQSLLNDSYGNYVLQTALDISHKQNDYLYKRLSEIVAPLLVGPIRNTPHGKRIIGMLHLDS

B1: Id_ii_S3_P4E.4_K4.3_C4.2_[T-1A]_H4.3_A4.1_F4.1_T4.2_[G10T]_[T11C] (ssRNA)
RNA: ACAAACCAACACUAUUAUCACAAAC
B2: Id_ii_S3_P5E.3_K5.2_C5.2_[C-2A]_[T-1C]_H5.2_A5.1_F5.1_T5.2_[A12C] (ssRNA)
RNA: ACAAACACUAUAUUAUUAUCACAAAC
B3: Id_ii_S3_P5E.3_K5.2_C5.2_[C-2A]_[T-1C]_H5.2_A5.1_F5.1_T5.2_[T11A]_[A12G] (ssRNA)
RNA: ACAAACACUAUAUUAUUAAGACAAAC
B4: Id_ii_S3_P5E.3_K5.2_C5.2_[C-2A]_[T-1C]_H5.2_A5.1_F5.1_T5.2_[T11C]_[A12G] (ssRNA)
RNA: ACAAACACUAUAUUAUUACGACAAAC
B5: Id_ii_S3_P5E.3_K5.2_C5.2_[C-2T]_[T-1A]_H5.2_A5.1_F5.1_T5.2_[T11C] (ssRNA)
RNA: ACAAACUAUAUAUUAUUACAACAAAC
B6: Id_ii_S3_P5E.3_K5.2_C5.2_[C-2A]_[T-1A]_H5.2_A5.1_F5.1_T5.2_[T11A]_[A12T] (ssRNA)
RNA: ACAAACAAUAUAUUAUUAAUACAAAC
B7: Id_ii_S3_P4E.4_K4.3_C4.2_[T-1A]_H4.3_A4.1_F4.1_T4.2_[G10A]_[T11C] (ssRNA)
RNA: ACAAACCAACACUAUUAACACAAAC
B8: Id_ii_S3_P5E.3_K5.2_C5.2_[C-2A]_[T-1A]_H5.2_A5.1_F5.1_T5.2_[T11A]_[A12C] (ssRNA)
RNA: ACAAACAAUAUAUUAUUAACACAAAC
B9: Id_ii_S3_P4E.4_K4.3_C4.2_[T-1A]_H4.3_A4.1_F4.1_T4.2_[G10A] (ssRNA)
RNA: ACAAACCAACACUAUUAAUACAAAC
B10: Id_ii_S3_P4E.4_K4.3_C4.2_H4.3_A4.1_F4.1_T4.2_[G10A]_[T11C] (ssRNA)
RNA: ACAAACCUACACUAUUAACACAAAC
B11: Id_ii_S3_P5E.3_K5.2_C5.2_[C-2G]_[T-1G]_H5.2_A5.1_F5.1_T5.2_[T11G]_[A12G] (ssRNA)
RNA: ACAAACGGUAUAUUAUUAGGACAAAC
B12: Ib_S1_P5E.1_K5.1_C5.1_H5.1_[T1G]_[G2T]_A5.1_F5.1_T5.1 (ssRNA)
RNA: UCUCUUGUUAUUAUUAUCUCUU
B13: Id_ii_S3_P5E.3_K5.2_C5.2_[C-2G]_[T-1A]_H5.2_A5.1_F5.1_T5.2_[T11G]_[A12C] (ssRNA)
RNA: ACAAACGAUAUAUUAUUAGCACAAAC
B14: Id_ii_S3_P5E.3_K5.2_C5.2_[C-2G]_[T-1C]_H5.2_A5.1_F5.1_T5.2_[T11A]_[A12C] (ssRNA)
RNA: ACAAACGCUAUAUUAUUAACACAAAC
B15: Id_ii_S3_P5E.3_K5.2_C5.2_[C-2T]_[T-1A]_H5.2_A5.1_F5.1_T5.2_[T11A]_[A12T] (ssRNA)
RNA: ACAAACUAUAUAUUAUUAAUACAAAC
B16: Id_ii_S3_P4E.4_K4.3_C4.2_[T-1A]_H4.3_A4.1_F4.1_T4.2 (ssRNA)
RNA: ACAAACCAACACUAUUAGUACAAAC
B17: Id_ii_S3_P5E.3_K5.2_C5.2_[C-2G]_[T-1A]_H5.2_A5.1_F5.1_T5.2_[T11C]_[A12C] (ssRNA)
RNA: ACAAACGAUAUAUUAUUACCACAAAC
B18: Id_ii_S3_P5E.3_K5.2_C5.2_[C-2A]_H5.2_A5.1_F5.1_T5.2_[T11G]_[A12G] (ssRNA)
RNA: ACAAACAUUAUAUUAUUAGGACAAAC
B19: Ib_S1_P5E.1_K5.1_C5.1_H5.1_[T1C]_[G2A]_A5.1_F5.1_T5.1 (ssRNA)
RNA: UCUCUUCAUAUUAUUAUCUCUU
B20: Id_ii_S3_P5E.3_K5.2_C5.2_[C-2G]_H5.2_A5.1_F5.1_T5.2_[T11C]_[A12T] (ssRNA)
RNA: ACAAACGUUAUAUUAUUACUACAAAC
B21: Id_ii_S3_P5E.3_K5.2_C5.2_[C-2A]_[T-1A]_H5.2_A5.1_F5.1_T5.2_[T11A] (ssRNA)
RNA: ACAAACAAUAUAUUAUUAAAACAAAC
B22: Id_ii_S3_P5E.3_K5.2_C5.2_[C-2G]_[T-1C]_H5.2_A5.1_F5.1_T5.2_[T11A]_[A12T] (ssRNA)
RNA: ACAAACGCUAUAUUAUUAAUACAAAC
B23: Id_ii_S3_P5E.3_K5.2_C5.2_[C-2A]_[T-1C]_H5.2_A5.1_F5.1_T5.2_[T11C] (ssRNA)
RNA: ACAAACACUAUAUUAUUACAACAAAC
B24: Id_ii_S3_P5E.3_K5.2_C5.2_[C-2T]_H5.2_A5.1_F5.1_T5.2_[T11C]_[A12G] (ssRNA)
RNA: ACAAACUUUAUAUUAUUACGACAAAC
B25: Id_ii_S3_P5E.3_K5.2_C5.2_[C-2T]_[T-1C]_H5.2_A5.1_F5.1_T5.2_[T11A]_[A12G] (ssRNA)
RNA: ACAAACUCUAUAUUAUUAAGACAAAC
B26: Id_ii_S3_P5E.3_K5.2_C5.2_[C-2T]_H5.2_A5.1_F5.1_T5.2_[T11C]_[A12C] (ssRNA)
RNA: ACAAACUUUAUAUUAUUACCACAAAC
B27: Id_ii_S3_P5E.3_K5.2_C5.2_[C-2G]_[T-1A]_H5.2_A5.1_F5.1_T5.2_[T11C] (ssRNA)
RNA: ACAAACGAUAUAUUAUUACAACAAAC
B28: Id_ii_S3_P5E.3_K5.2_C5.2_[C-2T]_H5.2_A5.1_F5.1_T5.2_[T11G]_[A12C] (ssRNA)
RNA: ACAAACUUUAUAUUAUUAGCACAAAC
B29: Id_ii_S3_P4E.4_K4.3_C4.2_[T-1A]_H4.3_A4.1_F4.1_T4.2_[T11C] (ssRNA)
RNA: ACAAACCAACACUAUUAGCACAAAC
B30: Id_ii_S3_P5E.3_K5.2_C5.2_[C-2G]_[T-1A]_H5.2_A5.1_F5.1_T5.2_[T11A]_[A12T] (ssRNA)
RNA: ACAAACGAUAUAUUAUUAAUACAAAC
B31: Id_ii_S3_P5E.3_K5.2_C5.2_[C-2A]_[T-1A]_H5.2_A5.1_F5.1_T5.2_[A12C] (ssRNA)
RNA: ACAAACAAUAUAUUAUUAUCACAAAC
B32: Id_ii_S3_P5E.3_K5.2_C5.2_[C-2A]_[T-1A]_H5.2_A5.1_F5.1_T5.2_[T11G]_[A12T] (ssRNA)
RNA: ACAAACAAUAUAUUAUUAGUACAAAC
B33: Id_ii_S3_P5E.3_K5.2_C5.2_[C-2G]_[T-1A]_H5.2_A5.1_F5.1_T5.2_[T11A] (ssRNA)
RNA: ACAAACGAUAUAUUAUUAAAACAAAC
B34: Id_ii_S3_P5E.3_K5.2_C5.2_[C-2T]_[T-1C]_H5.2_A5.1_F5.1_T5.2_[T11C]_[A12G] (ssRNA)
RNA: ACAAACUCUAUAUUAUUACGACAAAC
B35: Id_ii_S3_P5E.3_K5.2_C5.2_[C-2A]_[T-1C]_H5.2_A5.1_F5.1_T5.2_[T11A] (ssRNA)
RNA: ACAAACACUAUAUUAUUAAAACAAAC
B36: Id_ii_S3_P5E.3_K5.2_C5.2_[C-2G]_[T-1A]_H5.2_A5.1_F5.1_T5.2_[T11G]_[A12G] (ssRNA)
RNA: ACAAACGAUAUAUUAUUAGGACAAAC
B37: Id_ii_S3_P5E.3_K5.2_C5.2_[C-2T]_[T-1A]_H5.2_A5.1_F5.1_T5.2_[A12T] (ssRNA)
RNA: ACAAACUAUAUAUUAUUAUUACAAAC
B38: Id_ii_S3_P5E.3_K5.2_C5.2_[C-2A]_[T-1G]_H5.2_A5.1_F5.1_T5.2_[T11A]_[A12G] (ssRNA)
RNA: ACAAACAGUAUAUUAUUAAGACAAAC
B39: Ia_S1_P5E.1_K5.1_C5.1_H5.1_A5.1_[T5A]_F5.1_T5.1 (ssRNA)
RNA: UCUCUUUGUAAUAUUAUCUCUU
B40: Id_ii_S3_P5E.3_K5.2_C5.2_[C-2A]_[T-1G]_H5.2_A5.1_F5.1_T5.2_[T11G] (ssRNA)
RNA: ACAAACAGUAUAUUAUUAGAACAAAC
B41: Id_ii_S3_P4E.4_K4.3_C4.2_[T-1A]_H4.3_A4.1_F4.1_T4.2_[G10A]_[T11G] (ssRNA)
RNA: ACAAACCAACACUAUUAAGACAAAC
B42: Id_ii_S3_P5E.3_K5.2_C5.2_[C-2G]_[T-1A]_H5.2_A5.1_F5.1_T5.2_[T11A]_[A12C] (ssRNA)
RNA: ACAAACGAUAUAUUAUUAACACAAAC
B43: Ib_S1_P5E.1_K5.1_C5.1_H5.1_[T1G]_[T3C]_A5.1_F5.1_T5.1 (ssRNA)
RNA: UCUCUUGGCAUUAUUAUCUCUU
B44: Ib_S1_P5E.1_K5.1_C5.1_H5.1_[T1C]_[T3A]_A5.1_F5.1_T5.1 (ssRNA)
RNA: UCUCUUCGAAUUAUUAUCUCUU

For the series, the target named is T1, PUF4 RNA-binding domain. As to the kind of experiment: Mg; RNA-MaP; 20 mM Na-HEPES pH 7.4, 30 mM KOAc, 0.75 mM MgCl2, 0.1% Tween-20, 5% glycerol, 0.1 mg/mL BSA, 2 mM DTT; 25 C; 0.0125-409.6 nM protein. To be noted: tags: N-His6-TEV cleaved; C-SNAP kept, Cy3B-labelled; label: tethered on chip by stalled RNA polymerase.
One may read the Kd as the free concentration of one partner at which half of the binding sites on the other are occupied at equilibrium, for simple one-to-one binding. A low value points to a tighter complex. B1: the Kd is more than 2300 nM.
For B2 the value was 370 nM; for B3, 626 nM; for B4, 493 nM.
B5 showed a Kd of 13.5 nM. This Kd is about 37-fold lower than that of the molecule before.
The value for B6 was 614 nM.
For B7 the value was more than 2300 nM; for B8, 535 nM; for B9, more than 2300 nM.
B10 yielded a Kd of more than 2300 nM.
The value for B11 was 28.9 nM; that for B12 was 56.7 nM.
The value for B13 was 164 nM.
The value for B14 was 812 nM.
B15 showed a Kd of 18.3 nM.
The value for B16 was more than 2300 nM; that for B17 was 519 nM.
As to B18, the Kd is 94.3 nM. This Kd lies about 5.5-fold lower than the previous one.
For B19 the value was more than 2300 nM; for B20, 580 nM; for B21, 550 nM.
For B22 the value was 480 nM; for B23, 459 nM.
The value for B24 was 381 nM; that for B25 was 684 nM; that for B26 was 268 nM.
B27: the Kd came to 173 nM.
The value for B28 was 82.9 nM; that for B29 was more than 2300 nM; that for B30 was 285 nM.
The value for B31 was 576 nM.
For B32 the value was 118 nM; for B33, 704 nM.
B34: the affinity, expressed as Kd, was 230 nM.
The value for B35 was 485 nM; that for B36 was 164 nM; that for B37 was 19.2 nM.
The value for B38 was 36.4 nM; that for B39 was 6.33 nM; that for B40 was 35.5 nM.
For B41 the value was more than 2300 nM; for B42, 313 nM; for B43, 1040 nM.
B44 had a Kd of more than 2300 nM.
